Assay results published in patent US20250197513A1, “OSMR-SPECIFIC MONOCLONAL ANTIBODIES AND METHODS OF THEIR USE” (THE BOARD OF REGENTS OF THE UNIVERSITY OF TEXAS SYSTEM, priority 2021, published 2025).

System: HEYA8 ovarian cancer cells
Assay: In vivo efficacy and survival, intraperitoneal HEYA8-Luc+ ovarian cancer model
Design: species or system athymic nude mice
Settings: survival monitored for 100 days; antibody 10 mg/kg twice a week for 5 weeks; OSM 250 ng/kg
Procedure: To test the in vivo efficacy of anti-OSMR antibodies and overall survival efficiency post-treatment, Heya8-Luc+ cells (3×10^4 cells/animal) were intraperitoneally injected into 4-6-week-old athymic female nude mice (Nu/Nu) (Envigo, Madison, WI, USA) with a 27-gauge needle. Mice were monitored for tumor growth by bio-luminescence imaging IVIS100 and after 7 days post injection, randomly divided into 7 mice per group (efficacy testing) and 10 mice per group (survival studies). Mice were treated intraperitoneally twice weekly with Control IgG.
All the antibody clones were given at a concentration 10 mg/kg b.w twice a week for 5 weeks. All mice were euthanized at the end of 5 weeks or when moribund. Tumors were harvested and weighed, total number of tumor nodules and metastasis to distant organs were counted and imaged using IVIS100. The tumors were excised and proceeded for IHC, Western blotting and qPCR. For survival studies, the treatments were stopped after 5 weeks, and survival progression was monitored for a total of 100 days.

B1: OSM: recombinant human oncostatin M, ligand of OSMR, given with control IgG to stimulate tumor growth (protein)
chain: AAIGSCSKEYRVLLGQLQKQTDLMQDTSRLLDPYIRIQGLDVPKLREHCRERPGAFPSEETLRGLGRRGFLQTLNATLGCVLHRLADLEQRLPKAQDLERSGLNIEDLEKLQMARPNILGLRNNIYCMAQLLDNSDTAEPTKAGRGASQPPTPTPASDAFQRKLEGCRFLHGYHRFMHSVGRVFSKWGESPNRSRR
Q: How did the median survival turn out when B1 was run?
A: 29 days
